Results published in patent publication US20240352105A1, “COMPOSITIONS AND METHODS FOR NEUTRALIZING ANTIGENS” (PACAGEN, INC, priority 2023, published 2024).

What was measured:
[1] = molecular target: T1, recombinant His-tagged Can f2 (dog (Canis familiaris), UniProt O18874 19-180); assay: ELISA, antigen coated
T1 construct: also called Can f2-His; recombinant Can f2; not shown: His tag
T1 sequence (looked up): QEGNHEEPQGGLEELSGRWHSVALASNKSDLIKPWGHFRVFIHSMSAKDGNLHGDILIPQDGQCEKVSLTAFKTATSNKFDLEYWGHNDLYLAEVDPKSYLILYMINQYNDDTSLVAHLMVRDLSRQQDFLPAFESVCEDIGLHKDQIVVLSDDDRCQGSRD
Experimental: (§1) 2 microgram per milliliter (μg/mL) target antigen is coated in a 96-well plate and ELISA assay is performed after incubation with candidate VHHs. The binding EC50 of each clone is calculated using Prism GraphPad. The positive control antibody is involved as an internal control.
(§2) Isolated VHH clones were further validated by performing an ELISA assay as described in Example 1. Metrics of thermostability including melting temperature (Tₘ), onset temperature (Tₒₙₛₑₜ), and temperature of aggregation (Tagg), were also tested with increasing temperature in the range of 20° C.-95° C. at the speed of 1° C./min. The individual binding curves are shown for each candidate in FIGS. 7B-7P.

[2] = Thermostability (Tm, Tonset, Tagg) by Nanotemper DSF; assay type: physicochemical; parameters: key to Tm2 / Tagg / Tm1 / Tm / Tm3 / Tonset / Tonset ø (mean) / Tagg ø (mean): temperatures in °C; conditions: for Tm1: first melting point; for Tm2: second melting point; for Tm3: third melting point; for Tm: single melting point
Experimental: as §2, with “(Tm),” for “(Tₘ),”, “(Tonset),” for “(Tₒₙₛₑₜ),”, “C./min. These measurements were performed using a Nanotemper DSF. When applicable, Tm1 refers to the first melting point observed, Tm2 refers to the second melting point observed, etc., Sequence information for the VHH clones and the binding assay results are summarized in Table 3.” for “C./min.”, “3B-3I.” for “7B-7P.”
as §2, with “(Tm),” for “(Tₘ),”, “(Tonset),” for “(Tₒₙₛₑₜ),”, “5B-5H.” for “7B-7P.”
as §2, with “(Tm),” for “(Tₘ),”, “(Tonset),” for “(Tₒₙₛₑₜ),”
The detailed thermostability graphs used to determine the Tm, Tonset, and Tagg are illustrated in FIGS. 19A-19I and raw data is summarized in Table 23. Any subsequent melting points observed (Tm1, Tm2, Tm3, etc.) are separated by commas.

[3] = molecular target: T2, recombinant His-tagged Der p1 (dust mite, UniProt P08176 99-320, limits assumed); assay: ELISA, antigen coated on plate
T2 construct: Recombinant His-tagged protein made by the applicant; also called Der p1-His; Der pl; not shown: His tag
T2 sequence (looked up): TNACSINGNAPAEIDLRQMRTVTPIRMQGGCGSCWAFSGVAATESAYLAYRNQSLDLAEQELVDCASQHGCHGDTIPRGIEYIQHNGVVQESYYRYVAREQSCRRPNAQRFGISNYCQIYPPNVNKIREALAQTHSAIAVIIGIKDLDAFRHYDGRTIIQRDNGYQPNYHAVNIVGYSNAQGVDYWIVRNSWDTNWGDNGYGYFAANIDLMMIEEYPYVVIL
Experimental: as §1
Isolated VHH clones were further validated by performing an ELISA assay as described in Example 1. The individual binding curves are shown for each candidate in FIGS. 9A-9K.

[4] = anti-Can f2 VHH, 20° C.-95° C. at 1° C./min
[5] = anti-Can f2 VHH, in °C (unit assumed)
[6] = Average of two replicates, anti-Fel d1 VHH

B1: SDAB22118-1-D08 (VHH)
VHH: EVQLVESGGGLVQPGGSLRLSCVVSGSIFSDNAMGWYRQAPGKQREMVAIISSVGTTNNVDSVNGRFTISRDNAKNTVYLQMNSLKPEDTAVYYCKDFSAPRYWGQGTQVTVSS
notes: anti-Can f2 alpaca VHH; prokaryotic expression
EC50 [1]: 0.0486 µg/mL
Tagg [2, 4]: 40.82
Tm1 [2, 5]: 38.89
Tm2 [2, 5]: 43.62
Tm3 [2, 5]: 54.69

B2: DAB22110-1-1-C3 (protein)
VHH: QLQLVESGGGLVQPGGSLRLSCEASGFTFKYYTMSWYRQAPGKERELVATITNGDRTNYADSVKGRFTISRDNAKNTLYLQMNSLKPYDTAVYYCNRHLPLLQIWGQGTQVTVSS
Tagg ø (mean) [2, 6]: 58.93
Tonset ø (mean) [2, 6]: 58.06
Tm ø (mean), first melting point (Tm1) ([2]; Average of two replicates, anti-Fel d1 VHH, in °C (unit assumed)): 66.50
Tagg ([2]; Replicate 1): 59.02
Tonset ([2]; Replicate 1): 58.17
Tm, first melting point (Tm1) ([2]; Replicate 1, in °C (unit assumed)): 66.50
Tagg ([2]; Replicate 2): 58.85
Tonset ([2]; Replicate 2): 57.94
Tm, first melting point (Tm1) ([2]; Replicate 2, in °C (unit assumed)): 66.51

B3: SDAB22118-1-B11 (VHH)
VHH: AVQLVESGGGLVQPGGSLRLSCAASGFTFSNYYMSWYRQAPGKEREWVAFITSTGSSTNYANSVKGRFTASRDNAKNTVYLQMNSLKPEDTAVYYCKTRLWGNDYWGKGTLVTVSS
notes: as for B1
EC50 [1]: 0.164 µg/mL
Tagg [2, 4]: 44.54
Tm [2, 5]: 55.17

B4: SDAB22118-189-192-1-E10 (VHH)
VHH: AVQLVDSGGGLVQTGGSLRLSCAASGTIFSINRMAWYRQAPGKQRELVASIFFSGGITHYADFVKGRFTISRDNAKNTMYLQMNSLKPEDTAVYYCKGVIAPNYRRTSNFQDYWGQGTQVTVSS
notes: as for B1
EC50 [1]: 0.0427 µg/mL

B5: SDAB22118-189-192-1-H03 (VHH)
VHH: EVQLVESGGGLVQARGSLRLSCAASGRTFNNYAMGWFRQAPGKEREFVAAIASNTGTTYYAGSVKGRFAISRDNAKNTVDLHMNSLKPEDTAVYYCALGPLRLGWWYDSRPYDYWGQGTQVTVSS
notes: as for B1
EC50 [1]: 0.0575 µg/mL

B6: SDAB22118-189-192-1-C10 (VHH)
VHH: EVQLVESGGGLVQAGGSLRLSCAASGRTFSEYIMGWFRQAPGKERVFVSTISKSGAITNYADSVQGRFTISRDNAKNTVYLQMNSLKPEDSAVYYCAAGPLLSPAGRQYDYWGQGTQVTVSS
notes: as for B1
EC50 [1]: 0.0217 µg/mL

B7: SDAB22118-3-B02 (VHH)
VHH: AVQLVDSGGGLVQPGGSLRLSCAASGRTFSYYAMGWFRQALGKEREFVAASSRTGRVTNYADSVKGRFTISRDNAKNTVYLQMNSLKPEDTAIYYCAADDRFYGGDNPAFYNSWGQGTQVTVSS
notes: as for B1
EC50 [1]: 0.00759 µg/mL

B8: SDAB22118-3-G05 (VHH)
VHH: AVQLVESGGGLVQAGGSLRLSCAASGRTFNNSVMGWFRQAPGKEREFVAAISRSGAFAHYAESVEGRFTISRDNAKNTVYLQMNSLKPEDTAVYYCAAGAILLPTERRYDYWGQGTQVTVSS
notes: as for B1
EC50 [1]: 0.149 µg/mL

B9: SDAB22118-1-F04 (VHH)
VHH: QVQLVESGGGLVQPGGSLRLSCAYSGFTLDNNVIGWFRQAPGKEREFVAAISRSGAFTHYTESVQGRFTISRDNAKNTVYLQMNSLKPEDTAVYYCAAGAILLPTERRYDYWGQGTQVTVSS
notes: as for B1
EC50 [1]: 0.0639 µg/mL
Tagg [2, 4]: 48.08
Tm [2, 5]: 58.63

B10: SDAB22118-1-D05 (VHH)
VHH: QVQLVESGGGLVQAGGSLGLSCAASGRTFNNYVMGWFRQAPGKEREFVAAISRSGSFTHYAEAVQGRFTISRDNAKITVYLQMNSLKPEDTAVYYCAAGAILMPTERTYDYWGQGTQVTVSS
notes: as for B1
EC50 [1]: 0.0762 µg/mL
Tagg [2, 4]: 39.54
Tm1 [2, 5]: 48.35
Tm2 [2, 5]: 58.58
Tm3 [2, 5]: 64.58

B11: SDAB22118-189-192-1-E08 (VHH)
VHH: AVQLVESGGGLVQPGGSLRLSCVASGSSSRNYAMGWYRQAPGNEREFVAVITSRGYTHYANSVSGRFTISRDHAKDTAYLQMNSLKPEDTAVYYCNTQAGLLPFMTVYDWGTGTQVTVSS
notes: as for B1
EC50 [1]: 0.00411 µg/mL

B12: SDAB22118-2-G01 (VHH)
VHH: AVQLVDSGGGLVQAGDSLRLSCVASGRTFSSYVMGWFRQAPGKERLIVATISKSGSLTHYADSVEGRFTISRDNAKNTVYLQMNSLEPEDTAVYYCTPVSDLTGRRLGSYWGQGTQVTVSS
notes: as for B1
EC50 [1]: 0.0736 µg/mL
Tagg [2, 4]: 38.93
Tm [2, 5]: 43.71

B13: SDAB22118-3-D01 (VHH)
VHH: QVQLVESGGGLVQAGDSLRLSCAASGRSFSNYVMNWFRQAPGKEREFVAAISRSGRSTFYADSVKGRFTISRDNPKATVYLQMNSLVIEDTAVYFCAAASDITSMRSLAAITSWGQGTQVIVSS
notes: as for B1
EC50 [1]: 0.429 µg/mL

B14: SDAB22129-55-35-46-49-1-D04 (VHH)
VHH: QLQLVESGGGLVQPGGSLRLSCVISGGTFHPYPIGWFREAPGKEREGVLCINSGGQSEISANSAHDPKYADSVKGRFTISRDNAANTVYLQMNNLEPGDTAVYYCAAPREIYVDPYCPTYAYEYWGQGTQVTVSA
EC50 [3]: 0.0621 µg/mL

B15: SDAB22129-55-35-46-49-1-G09 (VHH)
VHH: QVKLEESGGGAVQPGGSLRLSCTASGQTFSNYIISWFRQAPGKEREFVVGISKSGGRTYYADSAKGRFTISRDNAKNTVYLQMSSLKPEDTAVYYCAADGLVLTAAAAEYDYWGQGTQVTVSS
notes: Expressed from a prokaryotic vector
EC50 [3]: 0.154 µg/mL

B16: SDAB22118-189-192-1-C05 (VHH)
VHH: QVQLVESGGGGVQAGGSLRLSCVASQSHFGYNVMGWYRQAPGRQRELVATIISSGGTNYADSVKGRFTISRDNAKNTVHLSMDSLNVEDTAVYFCYAKGVWLGREYWGQGTQVTVSS
notes: as for B1
EC50 [1]: 0.0325 µg/mL

B17: SDAB22129-55-35-46-49-1-A04 (VHH)
VHH: QLQLVESGGGLVQPGGSLRLSCAASGRVYNSWTMAWFRQAPGKEREFVGAFSLLDSGTRYADSLKDRVAISRDDAANTQWLQLSALKPEDTAVYYCAAKSGTIRATSEGQYNYWGQGIQVTVSS
notes: as for B15
EC50 [3]: 3.41 µg/mL

B18: SDAB22129-55-35-46-49-1-A03 (VHH)
VHH: QVQLVESGGGLVQAGGSLRLSCAVSGRTVSRNVMGWFRQAPGKEREFVAGIGFSGGSTYYADSVKGRFTISRDNAKNTVYLEMNRLQPEDTAVYYCAAPSLPLLTSDLHDYDYWGQGTQVTVSS
notes: as for B15
EC50 [3]: 0.0291 µg/mL

B19: SDAB22118-189-192-1-E09 (VHH)
VHH: EVQLVESGGGLVQPGGSLRLSCAASGTIFLINRMGWYRQAPGKQRELVATSFTSGNSTMYADSVKGRFTISRDNAKKTVYLQMNSLKPEDTAVYYCKARISRRYGNWDDYWGQGTQVTVSS
notes: as for B1
EC50 [1]: 0.0571 µg/mL

B20: SDAB22118-3-F08 (VHH)
VHH: QVQLVESGGGLVQPGESLRLSCAASGSIFSIYRMGWYRQAPGEQREHVATVTSGGGTGYADSVKGRFTIYRDNAKNTVYLQMNSLKPEDTAVYSCYAIPKSWSRTSEYSWGQGTQVTVSS
notes: as for B1
EC50 [1]: 0.0595 µg/mL
